Measurements as given in US20260167699A1 (Chugai, published 2026).
Substitutions are numbered along the chain they refer to.

T1: FcγRIIa(R) extracellular domain, C-terminal His tag (human, UniProt P12318 34-217)
T1 construct: extracellular domain; also called 2aR
T1 sequence: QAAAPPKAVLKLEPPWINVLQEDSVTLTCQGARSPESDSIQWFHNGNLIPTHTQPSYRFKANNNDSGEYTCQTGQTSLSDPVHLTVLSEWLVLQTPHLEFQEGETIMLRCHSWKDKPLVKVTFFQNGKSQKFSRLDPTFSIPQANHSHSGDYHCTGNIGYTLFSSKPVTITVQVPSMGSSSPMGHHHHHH

T2: FcγRIIa(H) extracellular domain, C-terminal His tag (human, UniProt P12318 34-217)
T2 construct: extracellular domain; also called 2aH
T2 sequence: T1 sequence with R134H

T3: FcγRIIb extracellular domain, C-terminal His tag (human, UniProt P31994 43-217)
T3 construct: extracellular domain; also called 2b
T3 sequence: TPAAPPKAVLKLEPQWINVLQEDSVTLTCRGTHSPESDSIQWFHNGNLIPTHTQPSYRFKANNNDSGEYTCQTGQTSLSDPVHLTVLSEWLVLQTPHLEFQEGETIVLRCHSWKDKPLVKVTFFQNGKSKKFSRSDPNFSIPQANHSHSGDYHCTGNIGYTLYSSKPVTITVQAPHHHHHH

T4: FcγRIIa(R) extracellular domain, C-terminal His tag (human, UniProt P12318 34-217)
T4 construct: extracellular domain; Allotype R131; also called 2aR
T4 sequence: T1 sequence

T5: FcγRIIb extracellular domain, C-terminal His tag (human, UniProt P31994 43-217)
T5 construct: extracellular domain; also called 2b
T5 sequence: T3 sequence

T6: FcγRIIa(H) extracellular domain, C-terminal His tag (human, UniProt P12318 34-217)
T6 construct: extracellular domain; Allotype H131; also called 2aH
T6 sequence: T1 sequence with R134H

B1: GpH7-A5/GpH7-B3 variant Y300_20W/GpL16-k0 (antibody, human IgG1, kappa)
heavy 1: not shown
heavy 2: not shown
light: DIVMTQSPLSLPVTPGEPASISCQASESLVHSNRNTYLHWYLQKPGQSPQLLIYKVSNRFSGVPDRFSGSGSGTDFTLKISRVEAEDVGVYYCSQNTHVPPTFGQGTKVEIERTVAAPSVFIFPPSDEQLKSGTASVVCLLNNFYPREAKVQWKVDNALQSGNSQESVTEQDSKDSTYSLSSTLTLSKADYEKHKVYACEVTHQGLSSPVTKSFNRGEC
notes: heterodimerized IgG1, one H chain mutated; also called He Ab; copies: 1 + 1 + 2
B2: GpH7-A5/GpH7-B3 variant K326_20W/GpL16-k0 (antibody, human IgG1, kappa)
heavy 1: not shown
heavy 2: not shown
light: B1 light
notes: He Ab: anti-glypican 3 IgG1 heterodimer, only the GpH7-B3 chain mutated; position in EU numbering; also called He Ab
B3: GpH7-A5/GpH7-B3 variant A327_20W/GpL16-k0 (antibody, human IgG1, kappa)
heavy 1: not shown
heavy 2: not shown
light: B1 light
notes: as for B2
B4: GpH7-A5/GpH7-B3 variant A330_20W/GpL16-k0 (antibody, human IgG1, kappa)
heavy 1: not shown
heavy 2: not shown
light: B1 light
notes: as for B2
B5: GpH7-A5/GpH7-B3 variant A330_11K/GpL16-k0 (antibody, human IgG1, kappa)
heavy 1: not shown
heavy 2: not shown
light: B1 light
notes: as for B2
B6: GpH7-A5/GpH7-B3 variant A330_15Y/GpL16-k0 (antibody, human IgG1, kappa)
heavy 1: not shown
heavy 2: not shown
light: B1 light
notes: as for B2
B7: GpH7-A5/GpH7-B3 variant A330_14T/GpL16-k0 (antibody, human IgG1, kappa)
heavy 1: not shown
heavy 2: not shown
light: B1 light
notes: as for B2
B8: GpH7-A5/GpH7-B3 variant A330_08L/GpL16-k0 (antibody, human IgG1, kappa)
heavy 1: not shown
heavy 2: not shown
light: B1 light
notes: as for B2
B9: GpH7-A5/GpH7-B3 variant A330_19Q/GpL16-k0 (antibody, human IgG1, kappa)
heavy 1: not shown
heavy 2: not shown
light: B1 light
notes: as for B2
B10: GpH7-A5/GpH7-B3 variant A327_19Q/GpL16-k0 (antibody, human IgG1, kappa)
heavy 1: not shown
heavy 2: not shown
light: B1 light
notes: as for B2
B11: GpH7-A5/GpH7-B3 variant A327_18N/GpL16-k0 (antibody, human IgG1, kappa)
heavy 1: not shown
heavy 2: not shown
light: B1 light
notes: as for B2
B12: GpH7-A5/GpH7-B3 variant A330_01G/GpL16-k0 (antibody, human IgG1, kappa)
heavy 1: not shown
heavy 2: not shown
light: B1 light
notes: as for B2
B13: GpH7-A5/GpH7-B3 variant A327_05P/GpL16-k0 (antibody, human IgG1, kappa)
heavy 1: not shown
heavy 2: not shown
light: B1 light
notes: as for B2
B14: GpH7-A5/GpH7-B3 variant A330_06M/GpL16-k0 (antibody, human IgG1, kappa)
heavy 1: not shown
heavy 2: not shown
light: B1 light
notes: as for B2
B15: GpH7-A5/GpH7-B3 variant A327_09D/GpL16-k0 (antibody, human IgG1, kappa)
heavy 1: not shown
heavy 2: not shown
light: B1 light
notes: as for B2
B16: GpH7-A5/GpH7-B3 variant A327_06M/GpL16-k0 (antibody, human IgG1, kappa)
heavy 1: not shown
heavy 2: not shown
light: B1 light
notes: as for B2
B17: GpH7-A5/GpH7-B3 variant A330_09D/GpL16-k0 (antibody, human IgG1, kappa)
heavy 1: not shown
heavy 2: not shown
light: B1 light
notes: as for B2
B18: GpH7-A5/GpH7-B3 variant A330_03V/GpL16-k0 (antibody, human IgG1, kappa)
heavy 1: not shown
heavy 2: not shown
light: B1 light
notes: as for B2
B19: GpH7-A5/GpH7-B3 variant A330_12R/GpL16-k0 (antibody, human IgG1, kappa)
heavy 1: not shown
heavy 2: not shown
light: B1 light
notes: as for B2
B20: GpH7-A5/GpH7-B3 variant A330_18N/GpL16-k0 (antibody, human IgG1, kappa)
heavy 1: not shown
heavy 2: not shown
light: B1 light
notes: as for B2
B21: GpH7-A5/GpH7-B3 variant A327_13S/GpL16-k0 (antibody, human IgG1, kappa)
heavy 1: not shown
heavy 2: not shown
light: B1 light
notes: as for B2
B22: GpH7-A5/GpH7-B3 variant A330_04F/GpL16-k0 (antibody, human IgG1, kappa)
heavy 1: not shown
heavy 2: not shown
light: B1 light
notes: as for B2
B23: GpH7-A5/GpH7-B3 variant A330_07I/GpL16-k0 (antibody, human IgG1, kappa)
heavy 1: not shown
heavy 2: not shown
light: B1 light
notes: as for B2
B24: GpH7-A5/GpH7-B3 variant A330_10E/GpL16-k0 (antibody, human IgG1, kappa)
heavy 1: not shown
heavy 2: not shown
light: B1 light
notes: as for B2
B25: GpH7-A5/GpH7-B3 variant A330_16H/GpL16-k0 (antibody, human IgG1, kappa)
heavy 1: not shown
heavy 2: not shown
light: B1 light
notes: as for B2
B26: GpH7-A5/GpH7-B3 variant A327_10E/GpL16-k0 (antibody, human IgG1, kappa)
heavy 1: not shown
heavy 2: not shown
light: B1 light
notes: as for B2

The binders below were run against T7, FcγRIIIa extracellular domain, C-terminal His tag (human, UniProt P08637 17-208) (assay: SPR; He Ab vs HeCon Ab (GpH7-A5/GpH7-B3/GpL16-k0)=100;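 also: surface plasmon resonance at 25 °C with the test antibody captured on a sensor chip via antigenic peptide, protein L or protein A/G and FcγR flowed over as analyte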).
T7 construct: extracellular domain; also called 3a
T7 sequence (P08637 other isoform, or with tags, fused parts or gaps): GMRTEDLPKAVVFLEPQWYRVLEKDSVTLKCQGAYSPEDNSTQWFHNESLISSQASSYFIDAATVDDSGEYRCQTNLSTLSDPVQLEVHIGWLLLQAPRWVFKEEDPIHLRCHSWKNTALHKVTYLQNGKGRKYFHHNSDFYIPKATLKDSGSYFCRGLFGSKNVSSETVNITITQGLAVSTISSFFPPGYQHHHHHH

Binder	He/Con 3a [%]
B1	101

The binders below were run against T1, FcγRIIa(R) extracellular domain, … in the same assay as above.

Binder	He/Con 2aR [%]
B1	104

Each binder was assayed against T2, FcγRIIa(H) extracellular domain, … in the same assay as above.

Binder	He/Con 2aH [%]
B1	103

Each binder was assayed against T3, FcγRIIb extracellular domain, … in the same assay as above.

Binder	He/Con 2b [%]
B1	110

Each binder was assayed against T8, FcγRIa extracellular domain, C-terminal His tag (human, UniProt P12314 16-292) in the same assay as above.
T8 construct: extracellular domain; also called 1a
T8 sequence (P12314 other isoform, or with tags, fused parts or gaps): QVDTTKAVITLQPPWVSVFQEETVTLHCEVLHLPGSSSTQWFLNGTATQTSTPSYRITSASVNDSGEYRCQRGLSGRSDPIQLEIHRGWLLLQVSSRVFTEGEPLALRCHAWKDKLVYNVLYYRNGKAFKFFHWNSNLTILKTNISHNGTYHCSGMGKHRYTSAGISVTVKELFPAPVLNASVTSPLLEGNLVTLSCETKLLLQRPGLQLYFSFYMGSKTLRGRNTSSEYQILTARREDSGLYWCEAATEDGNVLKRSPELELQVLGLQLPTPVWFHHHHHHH

Binder	He/Con 1a [%]
B1	106

Each binder was assayed against T4, FcγRIIa(R) extracellular domain, … (assay: SPR (Biacore); binding relative to GpH7-A5/GpH7-B3/GpL16-k0 x100;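 also: antibodies captured on a chip surface, soluble FcγR flowed over in HBS-EP+ running buffer at 25 °C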).
Experimental: (§1) The antibody of interest was analyzed for its interaction with FcγR using a BiaCore™ T100, BiaCore™ A100, or BiaCore™ 4000 surface plasmon resonance system (GE Healthcare Japan Corp.). The running buffer used was HBS-EP+ (GE Healthcare Japan Corp.). The assay temperature was set to 25° C. The sensor chips used were: a chip prepared by immobilizing antigenic peptides onto Series S Sensor Chip CM5 (GE Healthcare Japan Corp.) by the amine coupling method; a chip prepared by immobilizing antigenic peptides biotinylated in advance onto Series S Sensor Chip SA (certified) (GE Healthcare Japan Corp.) through their interaction; a chip prepared by immobilizing protein L (ACTIGEN, BioVision, Inc.) onto Series S Sensor Chip CM5 (GE Healthcare Japan Corp.); and a chip prepared by immobilizing protein A/G (Thermo Fisher Scientific K.K.) onto Series S Sensor Chip CM5 (GE Healthcare Japan Corp.). The antibody of interest was captured onto any of these chips and allowed to interact with FcγR diluted with a running buffer. The antibody captured on the chip was washed off through the reaction of 10 mM glycine-HCl (pH 1.5) to regenerate the chip, which was repetitively used.

Binder	He/Con 2aR [%]
B2	125
B3	95.9
B4	97.6
B5	124
B6	114
B7	107
B8	99.7
B9	117
B10	77.7
B11	114
B12	122
B13	80.6
B14	107
B15	159
B16	80
B17	79.5
B18	84
B19	116
B20	91
B21	98.6
B22	112
B23	96
B24	97.2
B25	111
B26	142

The binders below were run against T9, FcγRIa extracellular domain, C-terminal His tag (human, UniProt P12314 16-292) in the same assay as above.
T9 construct: extracellular domain; also called 1a
T9 sequence (P12314 other isoform, or with tags, fused parts or gaps): as above
Experimental: as §1

Binder	He/Con 1a [%]
B2	108
B3	100
B4	111
B5	107
B6	108
B7	108
B8	110
B9	109
B10	98.5
B11	100
B12	109
B13	102
B14	108
B15	105
B16	106
B17	112
B18	109
B19	103
B20	110
B21	105
B22	110
B23	109
B24	111
B25	109
B26	106

These binders were tested against T5, FcγRIIb extracellular domain, … in the same assay as above.
Experimental: as §1

Binder	He/Con 2b [%]
B2	166
B3	98.2
B4	86
B5	107
B6	107
B7	87.9
B8	79.6
B9	103
B10	67.5
B11	141
B12	117
B13	86.3
B14	90.9
B15	214
B16	74.1
B17	62.8
B18	59.2
B19	95.8
B20	71.9
B21	99
B22	105
B23	75.8
B24	79.2
B25	99
B26	175

Each binder was assayed against T6, FcγRIIa(H) extracellular domain, … in the same assay as above.
Experimental: as §1

Binder	He/Con 2aH [%]
B2	86.7
B3	76.6
B4	93.8
B5	118
B6	106
B7	102
B8	94.7
B9	110
B10	79.6
B11	79
B12	107
B13	67.9
B14	101
B15	124
B16	89.3
B17	67.8
B18	86.1
B19	116
B20	88.3
B21	84.4
B22	104
B23	94.4
B24	87.7
B25	110
B26	108

What follows are binders tested against T10, FcγRIIIa extracellular domain, C-terminal His tag (human, UniProt P08637 17-208) in the same assay as above.
T10 construct: extracellular domain; also called 3a
T10 sequence (P08637 other isoform, or with tags, fused parts or gaps): as the sequence (P08637 other isoform, or with tags, fused parts or gaps) above
Experimental: as §1

Binder	He/Con 3a [%]
B2	93.7
B3	52.6
B4	102
B5	91.8
B6	122
B7	85.8
B8	122
B9	86.3
B10	54
B11	62.8
B12	87.3
B13	61.9
B14	139
B15	86
B16	54
B17	56.4
B18	98.8
B19	77.3
B20	67.3
B21	66.7
B22	144
B23	101
B24	82.8
B25	102
B26	70.5
